Tests used:
[1] = target: IR-A in cell membranes of human IM-9 lymphocytes (human (endogenous in IM-9)) (UniProt P06213); assay: radioligand binding
[2] = target: human IR-A ECD construct (residues 1-917) (human); assay: cryo-EM structure

Kd [1]: 2.6 nM
stoichiometry N (per IR-ECD dimer) [2]: 2
Substance: S661 peptide
